Source: patent US20230364000A1, “COMPOSITIONS COMPRISING COMBINATIONS OF COLLAGEN OR ELASTIN POLYPEPTIDES WITH ACTIVE INGREDIENTS AND METHODS OF USING SAME” (Geltor, Inc., priority 2020, published 2023)

Columns and labels:
facial skin [1] = assay: Expert clinical grader evaluation of facial skin (10 cm VAS; five-point ordinal scale for erythema), clinical study of Example 3; type: in vivo, human; conditions: 0.1% w/w topical formulation, Week 2
Description: A clinical study using human subjects to determine the effects of a topical skincare product containing truncated human type 21 collagen (SEQ ID NO: 16) is performed. The research is performed according to U.S. and International standards of Good Clinical Practice (FDA and ICH guidelines) and applicable government regulations.
A base formulation (control formulation) made of water, olive oil glycereth-8 esters, glycerin, coconut alkanes, hydroxyethyl acrylate/sodium acryloyldimethyl taurate copolymer, pentylene glycol, disodium EDTA, caprylyl glycol, chlorphenesin, phenoxyethanol is prepared. A formulation containing the truncated human type 21 collagen is prepared by adding sufficient collagen to prepare a topical formulation containing 0.1% w/w collagen.
Visual Analog Scales (VAS) are commonly used in clinical research to measure intensity or frequency of various symptoms, subjective characteristics or attitudes that cannot be directly measured. VAS are a reliable scale and more sensitive to small changes than simple ordinal scales. (A. Paul-Dauphin, F. Guillemin, J. Virion and S. Briancon, “Bias and precision in visual analog scales: A randomized controlled trial,” American Journal of Epidemiology, vol. 150, no. 10, pp. 1117-27, 1999). When responding to a VAS item, the expert grader specifies their level of agreement to a statement by indicating a position along a line (10 cm) between two end-points or anchor responses. Simple VAS is used to evaluate efficacy parameters in which the ends of a 10 cm horizontal line is defined as extreme limits orientated from the left (best) to the right (worst). Signs of photo-aging can be classified as follows: Mild=1-3.9 cm, Moderate=4-6.9 cm, Severe=7-10 cm.
Ordinal scales allow a number to be directly and objectively attached to the quality of a given attribute. When responding to an ordinal scale item, the expert grader specifies their level of agreement to a statement by choosing a set grade, or level.
The appearance of each subject's facial skin redness (erythema) is assessed by an expert grader using the following five-point ordinal scale for qualification at Baseline (Table 6). If qualified, each subject will undergo further erythema assessments at week 2, week 4, week 6 and week 8.
Fourteen female subjects are enrolled. The inclusion criteria are Caucasian female subjects with Fitzpatrick skin type III in good general health, and between ages of 35 and 65 years old, inclusive at enrollment. Inclusion criteria also include signs of aging on face as determined by an expert grader at a baseline of: a) Score of >2 cm<6 on 10 cm scale for lines/wrinkles; and b) Score of >1<3 on 5-point ordinal scale for facial redness (erythema). Table 7 discloses the demographics of the study participants.
The results of the expert clinical grader evaluation on lines/wrinkles, firmness (visual), elasticity (tactile), brightness, texture/softness (tactile), texture/smoothness (visual) and erythema after two weeks treatment are shown in Table 8. All of the tested characteristics were improved. The scores for brightness, texture/softness (tactile), texture/smoothness (visual) and erythema improved with statistical significance.

fibroblasts = assay: RNA sequencing of extracellular matrix gene expression in fibroblasts; type: cell-based, human; conditions: 0.03%, 48 hours
Description: RNA sequencing was performed to analyze global gene expression. After 48 hours of exposure, fibroblasts were incubated with 0.03% of a polypeptide according to SEQ ID NO: 16. These fibroblasts expressed higher levels of several extracellular matrix genes than cells incubated in media alone. […] This response was similar to fibroblasts treated with Vitamin C (FIG. 2A; “D”).

facial skin [2] = assay: Facial wrinkles, clinical study of Example 5; type: in vivo, human; conditions: topical facial serum 0.1%, n=15, FIG. 9
Excerpt: In a clinical study (n=15 subjects), subjects used a topical facial serum containing 0.1% of a polypeptide of SEQ ID NO: 16 for 8 weeks, after using a protein-free base facial serum for a 1-week washout period.

[3] = system: Human full-thickness skin equivalents (MatTek Epiderm FT co-culture tissue models); assay: Type I collagen production in human full-thickness skin equivalents (pro-collagen type I C-peptide ELISA); type: cell-based; conditions: polypeptide 0.1% w/w, FIG. 18
Description: Human full-thickness skin equivalents (MatTek Epiderm FT co-culture tissue models) which contain keratinocytes and fibroblasts were treated with a 0.1% w/w truncated human type 21 collagen polypeptide (having an amino acid sequence of SEQ ID NO: 16) (“C21”; FIG. […] Culture medium was changed every 2 days. On day 4, supernatant was collected and analyzed by enzyme-linked immunosorbent assay (ELISA) for pro-collagen type I C-peptide, which is a readout for total secreted collagen type I protein.

[4] = system: Human full-thickness skin equivalents (MatTek Epiderm FT co-culture tissue models); assay: Elastin production in human full-thickness skin equivalents (ELISA); type: cell-based; conditions: polypeptide 0.1% w/w, retinol (10, unit not given), ascorbic acid 2% w/w, FIG. 20
Excerpt: The combination of the truncated human type 21 collagen polypeptide with retinol increased elastin production by 45% relative to untreated control. This appeared to be a synergistic effect as treatment with truncated human type 21 collagen polypeptide alone increased elastin production by 20% and treatment with retinol alone increased elastin production by 17%. The combination of the truncated human type 21 collagen polypeptide with ascorbic acid increased elastin production by 33% relative to untreated control. This appeared to be a synergistic effect as treatment with truncated human type 21 collagen polypeptide alone increased elastin production by 20% and treatment with ascorbic acid alone increased elastin production by 5%.

[5] = system: Human full-thickness skin equivalents (MatTek Epiderm FT co-culture tissue models); assay: Type III collagen production in human full-thickness skin equivalents (pro-collagen type III N-peptide ELISA); type: cell-based; conditions: polypeptide 0.1% w/w, ascorbic acid 2% w/w, FIG. 21

B1: SEQ ID NO: 16: truncated human collagen type 21 alpha 1 without the DsbA secretion tag, recombinantly expressed in E. coli (protein)
chain: AGFPGLPGPAGEPGRHGKDGLMGSPGFKGEAGSPGAPGQDGTRGEPGIPGFPGNRGLMGQKGEIGPPGQQGKKGAPGMPGLMGSNGSPGQPGTPGSKGSKGEPGIQGMPGASGLKGEPGATGSPGEPGYMGLPGIQGKKGDKGNQGEKGIQGQKGENGRQGIPGQQGIQGHHGAKGERGEKGEPGVR
- Brightness Mean Percent Improvement From BL mean (facial skin [1]): 2.57%
- Brightness Percent of Subjects Showing Improvement From BL (facial skin [1]): 78.6%
- Elasticity (Tactile) Mean Percent Improvement From BL mean (facial skin [1]): 0.25%
- Elasticity (Tactile) Percent of Subjects Showing Improvement From BL (facial skin [1]): 35.7%
- Erythema Mean Percent Improvement From BL mean (facial skin [1]): 23.81%
- Erythema Percent of Subjects Showing Improvement From BL (facial skin [1]): 35.7%
- Firmness (Visual) Mean Percent Improvement From BL mean (facial skin [1]): 1.08%
- Firmness (Visual) Percent of Subjects Showing Improvement From BL (facial skin [1]): 64.3%
- Lines/Wrinkles (Global) Mean Percent Improvement From BL mean (facial skin [1]): 0.92%
- Lines/Wrinkles (Global) Percent of Subjects Showing Improvement From BL (facial skin [1]): 57.1%
- Texture/Smoothness (Visual) Mean Percent Improvement From BL mean (facial skin [1]): 3.63%
- Texture/Smoothness (Visual) Percent of Subjects Showing Improvement From BL (facial skin [1]): 64.3%
- Texture/Softness (Tactile) Mean Percent Improvement From BL mean (facial skin [1]): 6.43%
- Texture/Softness (Tactile) Percent of Subjects Showing Improvement From BL (facial skin [1]): 71.4%
- Texture/Softness (Tactile) Mean ± SD (facial skin [1]; n 14, baseline 4.82 ± 0.82, P-value 0.008*): 4.51 ± 0.89
- Elasticity (Tactile) Mean ± SD (facial skin [1]; n 14, baseline 4.91 ± 0.53, P-value 0.547): 4.90 ± 0.52
- Firmness (Visual) Mean ± SD (facial skin [1]; n 14, baseline 5.07 ± 0.77, P-value 0.120): 5.01 ± 0.75
- Lines/Wrinkles (Global) Mean ± SD (facial skin [1]; n 14, baseline 5.22 ± 0.75, P-value 0.336): 5.17 ± 0.75
- Texture/Smoothness (Visual) Mean ± SD (facial skin [1]; n 14, baseline 5.46 ± 0.70, P-value 0.009*): 5.25 ± 0.68
- Brightness Mean ± SD (facial skin [1]; n 14, baseline 5.51 ± 0.54, P-value 0.010*): 5.37 ± 0.62
- Erythema Mean ± SD (facial skin [1]; five-point ordinal scale, n 14, baseline 1.60 ± 0.73, P-value 0.021*): 1.21 ± 0.80
- elastin gene (ELN) expression (fibroblasts; relative to untreated cells and various marine collagens, FIG. 2B): upregulated
- collagen type I gene (COL1A) expression (fibroblasts; relative to untreated cells or retinol, similar to Vitamin C, FIG. 2A): upregulated
- fibronectin gene (FN1) expression (fibroblasts; relative to untreated cells, retinol and Vitamin C, FIG. 2C): upregulated
- facial wrinkles (facial skin [2]; 4 weeks vs baseline): reduction
- facial wrinkles (facial skin [2]; 8 weeks vs baseline): reduction
- increase of type I collagen production relative to the untreated control ([3]; day 4 supernatant, hyaluronic acid 0.1% w/w (low molecular weight, 15-40 kDa)): 64%
- production of type I collagen as compared to untreated cells ([3]; each agent alone, day 4, retinol (10, unit not given), ascorbic acid 2% w/w, hyaluronic acid 0.1% w/w): increased production
- increase of elastin production relative to untreated control ([4]; day 2 supernatant): 20%
- production of elastin as compared to untreated cells ([4]; each agent alone, day 2, hyaluronic acid 0.1% w/w): increased production
- increase of type III collagen production relative to untreated control ([5]; day 2 supernatant): 82%
- production of type III collagen as compared to untreated cells ([5]; each agent alone, day 2, retinol (10, unit not given), hyaluronic acid 0.1% w/w): increased production
